The conditions of the series: pH 8, Thermal, CD, Bis-Tris propane ammonium acetate 0.05 M 0.05 M, reversible: No, whole UniProt chain shown.

B1: wild type, O00095 (protein)
chain: MKFLQVLPALIPAALAQTSCDQWATFTGNGYTVSNNLWGASAGSGFGCVTAVSLSGGASWHADWQWSGGQNNVKSYQNSQIAIPQKRTVNSISSMPTTASWSYSGSNIRANVAYDLFTAANPNHVTYSGDYELMIWLGKYGDIGPIGSSQGTVNVGGQSWTLYYGYNGAMQVYSFVAQTNTTNYSGDVKNFFNYLRDNKGYNAAGQYVLSYQFGTEPFTGSGTLNVASWTASIN
One may read the Tm as the temperature at the midpoint of the melting transition. On to B1, for which the Tm (Hypocrea jecorina) was found to be 54.4 °C.

B2: wild type, Q8NJY6 (protein)
chain: MKFLQVLPAILPAALAQTSCDQYATFSGNGYIVSNNLWGASAGSGFGCVTSVSLNGAASWHADWQWSGGQNNVKSYQNVQINIPQKRTVNSIGSMPTTASWSYSGSDIRANVAYDLFTAANPNHVTYSGDYELMIWLGKYGDIGPIGSSQGTVNVGGQTWTLYYGYNGAMQVYSFVAQSNTTSYSGDVKNFFNYLRDNKGYNAGGQYVLSYQFGTEPFTGSGTLNVASWTASIN
In the case of B2, for the setting “Trichoderma citrinoviride”, the Tm worked out at 49.2 °C.

B3: wild type, Q8NJZ1 (protein)
chain: MKANIVILSLFAPLAAVAQTLCGQYSSNTQGGYIFNNNMWGMGSGSGSQCTYVDKVWAEGVAWHTDWSWSGGDNNVKSYPYSGRELGTKRIVSSIKSISSGADWDYTGSNLRANAAYDIFTSANPNHATSSGDYEVMIWLGRYGGVYPIGNSIGTVRAAGRDWALHIGYNGAMKVFSFVAANPVTRFDGEIMDFFYLLRDMQGYPMTSQYLLTLQFGTEPFTGSGAKFNCWYFGATLSYW
As to B3, the Tm (Bionectria ochroleuca) was 45.9 °C.

Source of the values: FireProtDB (doi:10.1110/ps.0237703).
